{"source": "patent US20050095613", "proteins": {"B1": {"name": "human CARD-13 (protein)", "chain": "MADKKPSKEDPVNMVKLLARNVLDGILDDLMENNVLNTEELRNLGKGLNFMVNNAGNLVDNITEKAQMAGKILKDRLLSHPKQLSLEYQRESEDQESEESSASSSSSTESEEENEESKDEERAASAHSMAVPPTGLPRWWQAASKMAADHFQDGGEPRVLCPGVPGLTDSKERNLGPCAPLEIQGAQPSGRLKLCPHAHFRELKTKRADEIYPVMEKEGRTRLALIICNKEFHYLLNRNGSELDLLGMQDLLETLGYSVVIEENLTAQEMETALRQFAARPEHQSSDSTSLVFMSHGILNGICGTKHWDQEPDVLHDDTIFEIFNNRNCRSLRDKPKVIIMQACRGSGAGIVWFTTDSGKASAETHGQLLQSSICNDAVTKAHVEKDFIAFKSSTPHNVSWRHEISGSVFISQIIYYFKEYSWSHHLEEIFRKVQRSFETPNVVTQLPTIERLSMTRYFYLFPGN"}}, "key": {"LEHD peptide substrate": {"molecular_target": "T1, LEHD peptide substrate", "T1 chain": "LEHD"}, "DQMD peptide substrate": {"molecular_target": "T2, DQMD peptide substrate", "T2 chain": "DQMD"}, "DEVD peptide substrate": {"molecular_target": "T3, DEVD peptide substrate", "T3 chain": "DEVD"}, "WEHD peptide substrate": {"molecular_target": "T4, WEHD peptide substrate", "T4 chain": "WEHD"}}, "data": [{"protein": "B1", "values": [{"measurement": "cleavage of peptide substrate (caspase activity)", "setting": "LEHD peptide substrate", "value": "It also had some activity against LEHD peptide substrate"}, {"measurement": "cleavage of peptide substrate (caspase activity)", "setting": "DQMD peptide substrate", "value": "it did not cleave DEVD peptide substrate or DQMD peptide substrate"}, {"measurement": "cleavage of peptide substrate (caspase activity)", "setting": "DEVD peptide substrate", "value": "it did not cleave DEVD peptide substrate or DQMD peptide substrate"}, {"measurement": "cleavage of peptide substrate (caspase activity)", "setting": "WEHD peptide substrate", "value": "This purified CARD-13 cleaved WEHD peptide substrates, as does caspase-1"}]}]}
